Assay [1] addresses neonatal Fc receptor FcRn. As to the kind of experiment: FcRn binding of bispecific antibody at acidic pH; method not stated.
The target in assay [2] is neonatal Fc receptor FcRn. As to the kind of experiment: FcRn binding of bispecific antibody; method not stated.

Changes are numbered by the printed parent chain.

Chain of neonatal Fc receptor FcRn (P55899 24-297, chain 1 of 2): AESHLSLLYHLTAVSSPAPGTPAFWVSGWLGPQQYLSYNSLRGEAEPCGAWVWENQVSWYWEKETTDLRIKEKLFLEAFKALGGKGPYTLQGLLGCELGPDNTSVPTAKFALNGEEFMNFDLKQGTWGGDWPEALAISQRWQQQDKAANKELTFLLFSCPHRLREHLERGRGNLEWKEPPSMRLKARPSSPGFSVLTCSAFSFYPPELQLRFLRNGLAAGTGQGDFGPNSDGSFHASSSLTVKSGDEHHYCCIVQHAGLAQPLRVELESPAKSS
Chain of neonatal Fc receptor FcRn (P61769 21-119, chain 2 of 2, further chain): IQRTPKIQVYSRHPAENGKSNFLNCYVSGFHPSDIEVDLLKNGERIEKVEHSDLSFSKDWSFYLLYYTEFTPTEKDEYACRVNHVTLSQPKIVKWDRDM

B1: TY21489 (bispecific antibody, part only; not given: rest of both heavy chains, lights, not shown: a dimerising Fc or GST)
heavy, part 1: GQPREPQVYTLPPSRKKLTKNQVKLTCLVKGFYPSDIAVEWESNGQPENNYKTTPPVLDCDGSFFLYSKLTVDKSRWQQGNVFSCSVMHEALHNHYTQKSLSLSPGK
heavy, part 2: B1 heavy, part 1 with L11D, K16D, K17E, K24S, K30D, N50C, C60S, K99D
For B1, the FcRn binding at acidic pH/nM in assay [1] was found to be 53.7 nM. The pH dependent FcRn binding/% in assay [2] is 0%.
